Data on one molecule can be found in publication PMC9080080 (Cell Reports, 2022).

The target of the assay is SARS-CoV S2P protein (SARS-CoV, strain  (reference …, UniProt P59594, stabilised)). Briefly: SPR. (In general: Surface plasmon resonance follows binding to a sensor surface in real time, without labels.)

B1: XMA09 (antibody, V domains shown)
VH: QVQLVQSGAEVKKPGSSVKVSCKASGGTFSSFAISWVRQAPGQGLEWMGGIIPIYGTANYAQKFQGRVTITADESTSTAYMDLSSLRSEDTAVYYCARDGSSTYYPHNWFDPWGQGTLVTVSS
VL: QSVLTQPPSVSGAPGQRVTISCTGSSSNIGSGYDVHWYQQLPGTAPKLLIYGNSNRPSGVPDRFSGSKSGTSASLAITGLQAEDEADYYCQSYDSSLSGVFGTGTKVTVL
As to B1, the binding result was “binds”.
